Measured values: US20120058118A1 (Boehringer Ingelheim, published 2012)
Ends that are not written are not given here. * marks the point of attachment. Biotin = O=C1N[C@H]2[C@H](CS[C@H]2CCCCC(=O)*)N1

T1: A-beta(1-16) peptide (human)
T1 construct: Bachem peptide captured on streptavidin chip; also called monomeric A-beta(1-16)
T1 peptide: DAEFRHDSGYEVHHQK-biotin

T2: A-beta(12-28) peptide (human)
T2 construct: Bachem peptide captured on streptavidin chip; also called monomeric A-beta(12-28); central region
T2 peptide: Biotin-VHHQKLVFFAEDVGSNK


Tests used:
A-beta(1-16) peptide = biological target: T1, A-beta(1-16) peptide; experiment: SPR on captured A-beta(1-16)
Protocol: (§1) After capturing, surfaces are blocked by injecting an excess (200 μg/ml) of d-biotin for 180 s at 5 μl/min. A reference surface is washed and blocked with d-biotin. HBS-EP+buffer is used as the running buffer and experiments are performed at 25° C. For off-rate screening, periplasmic extracts of VHHs are injected at a 10-fold dilution for 2 min at 45 μl/min and are allowed to dissociate for 10 min. […] Between different VHH samples, the surfaces are regenerated with regeneration buffer (50 mM NaOH) for 25 s at 45 μl/min followed by 10 s 6M GuHCl at 45 μl/min if regeneration is incomplete. […] Data are double referenced by subtraction of the curves on the reference channel and of a blank running buffer injection. Sensorgrams are evaluated by fitting a 1:1 dissociation model using the Biacore T100 Evaluation software v1.1.1.

[1] = biological target: T3, human A-beta(1-40) peptide, monomeric (BAM) (human, biotin at the C-terminus in capture ELISA, SPR and TR-FRET; not biotinylated where coated directly (Example 7)); experiment: TR-FRET competition, labelled ABII42D4
T3 construct: synthetic peptide (Anaspec), TFA/HFIP treated to give monomer; also called monomeric A-beta

[2] = biological target: T4, aggregated A-beta(1-40) peptide (BAA) (human); experiment: BAA ELISA
T4 construct: also called A-beta peptide aggregates

[3] = biological target: T3, human A-beta(1-40) peptide, monomeric …; experiment: BAM ELISA
[4] = biological target: T3, human A-beta(1-40) peptide, monomeric …; experiment: ABII002 TR-FRET competition assay
[5] = biological target: T3, human A-beta(1-40) peptide, monomeric …; experiment: ABII050 TR-FRET competition assay
[6] = biological target: T3, human A-beta(1-40) peptide, monomeric …; experiment: 60A10 TR-FRET assay (labelled ABII60A10)
[7] = biological target: T3, human A-beta(1-40) peptide, monomeric …; experiment: 42D4 TR-FRET assay (labelled ABII42D4)
[8] = biological target: T3, human A-beta(1-40) peptide, monomeric …; experiment: cell-based or functional assay
A-beta(12-28) peptide = biological target: T2, A-beta(12-28) peptide; experiment: SPR on captured A-beta(12-28)
Protocol: as §1

[9] = biological target: T3, human A-beta(1-40) peptide, monomeric …; experiment: TR-FRET competition, labelled ABII60A10; extrapolated curve
[10] = biological target: T3, human A-beta(1-40) peptide, monomeric …; experiment: TR-FRET competition, labelled ABII60A10

| Binder | EC50 [2] | EC50 [3] | inhibition of peptide aggregation (ThT fluorescence), 28 µM VHH [8] | binding result (A-beta(12-28) peptide) | IC50 [9] | other results |
| --- | --- | --- | --- | --- | --- | --- |
| ABII5D2 (VHH) VHH: EVQLVESGGGLVQAGGSLRLSCAASGRTFSSYAMGWVRQAPGKERELVATISQSGGLRSYADSVKGRFTISRDNAKNTVYLQMNSLTPGDTAVYYCAAQARATAWSPQRVDYWGQGTQVTVSS | 11.7 nM | 54.1 nM | – | – | – | binding result (A-beta(1-16) peptide): binds; IC50 [1]: > 1000 nM |
| ABII059-27GS-ABII035-MSA (designed binder, built from the printed name; not shown: mouse serum albumin) EVQLLESGGGLVQPGGSLRLSCAASGRTFNNYNMGWFRQAPGKGREFVAAVSRSGVSTYYADSVKGRFTISRDNSKNTVYLQMNSLRPEDTAVYYCAAAYRGTAINVRRSYSSWGQGTLVTVSSGGGSGGGGSGGGGSGGGGSGGGGSGGGEVQLLESGGGLVQPGGSLRLSCVHSGPTFRTDTMGWFRQAPGKGREFVAAVTWNSGRINYADSVKGRFTISRDNSKNTAYLQMNSLRPEDTAVYYCAAHRFVVGGNRVEDWRYWGQGTLVTVSS | – | – | – | – | – | IC50 [4]: 0.19 nM; IC50 [5]: 0.18 nM |
| ABII059-27GS-ABII035-MSA_D3 (designed binder, built from the printed name; not shown: domain III of mouse serum albumin) EVQLLESGGGLVQPGGSLRLSCAASGRTFNNYNMGWFRQAPGKGREFVAAVSRSGVSTYYADSVKGRFTISRDNSKNTVYLQMNSLRPEDTAVYYCAAAYRGTAINVRRSYSSWGQGTLVTVSSGGGSGGGGSGGGGSGGGGSGGGGSGGGEVQLLESGGGLVQPGGSLRLSCVHSGPTFRTDTMGWFRQAPGKGREFVAAVTWNSGRINYADSVKGRFTISRDNSKNTAYLQMNSLRPEDTAVYYCAAHRFVVGGNRVEDWRYWGQGTLVTVSS | – | – | – | – | – | IC50 [4]: 0.1 nM; IC50 [5]: 0.12 nM |
| ABII60D2 (VHH) VHH: EVQLVESGGGSVQAGGSLRLSCAYSGSIFSIKTMGWYRQAPGKQRELVGRITSGDSTNYADSVKGRFTISRDKAKTTVYLQMNNLKPEDTAVYYCAARRPWPRSDVWGQGTQVTVSS | – | > 1000 nM | – | – | – | binding result (A-beta(1-16) peptide): binds |
| ABII60A10-35GS-ABII42D4 (designed binder, biparatopic VHH construct) EVQLVESGGGLVQAGGSLRLSCAASGRTFNNYNMGWFRQAPGKEREFVAAVSRSGVSTYYADSVKGRFTISRDNAKNAVYLQMNSLKPEDTAIYYCGAAYRGTAINVRRSYDSWGQGTQVTVSSGGGGSGGGGSGGGGSGGGGSGGGGSGGGGSGGGGSEVQLVESGGGLVLAGGSLRLSCVHSGPTFSTDTMGWFRQAPGKEREFVAAVTWNSGRTNYADSVKGRFTVSRDNTRNAAYLQMSGLKDEDTAVYYCTAHRLVVGGTSVGDWRYWGQGTQVTVSS | – | – | – | – | – | IC50 [6]: 0.091 nM; IC50 [7]: 0.055 nM |
| ABII323-PEG40 (designed binder, PEG40 on the Cys at position 15 of the 35GS linker, 059-35GSC-035) VQLLESGGGLVQPGGSLRLSCAASGRTFNNYNMGWFRQAPGKGREFVAAVSRSGVSTYYADSVKGRFTISRDNSKNTVYLQMNSLRPEDTAVYYCAAAYRGTAINVRRSYSSWGQGTLVTVSSGGGGSGGGGSGGGGCGGGGSGGGGSGGGGSGGGGSEVQLLESGGGLVQPGGSLRLSCVHSGPTFRTDTMGWFRQAPGKGREFVAAVTWNSGRINYADSVKGRFTISRDNSKNTAYLQMNSLRPEDTAVYYCAAHRFVVGGNRVEDWRYWGQGTLVTVSS | – | – | – | – | – | IC50 [4]: 0.18 nM; IC50 [5]: 0.2 nM |
| ABII14D4 (VHH) VHH: EVQLVESGGGLVQAGGSLRLSCAASGRTFSTYNMAWFRHAPGKEREFVAAISRSGGSTYYVDSVKGRFTISRDNAKNTVYLQMNSLKPEDTAIYYCAAAPRGRSIVTTATYDYWGQGTQVTVSS | 6.8 nM | 124 nM | 78% | binds | – | IC50 [10]: 744 nM |
| ABII42G10 (VHH) VHH: EVQLVESGGGLVQAGGSLRLSCLFSGRTFSTNGVGWFRQVPGKEREFVSAINWSGSKTNYAEPVKGRFTISRDNAKNTAYLQMNSLKPEDTAVYYCAAYRTSISRYEYAYWGQGTQVTVSS | 49.5 nM | 87 nM | – | – | – | binding result (A-beta(1-16) peptide): binds; IC50 [1]: > 1000 nM |
| ABII42D4-35GS-ABII60A10 (designed binder, biparatopic VHH construct) EVQLVESGGGLVLAGGSLRLSCVHSGPTFSTDTMGWFRQAPGKEREFVAAVTWNSGRTNYADSVKGRFTVSRDNTRNAAYLQMSGLKDEDTAVYYCTAHRLVVGGTSVGDWRYWGQGTQVTVSSGGGGSGGGGSGGGGSGGGGSGGGGSGGGGSGGGGSEVQLVESGGGLVQAGGSLRLSCAASGRTFNNYNMGWFRQAPGKEREFVAAVSRSGVSTYYADSVKGRFTISRDNAKNAVYLQMNSLKPEDTAIYYCGAAYRGTAINVRRSYDSWGQGTQVTVSS | – | – | – | – | – | IC50 [6]: 0.084 nM; IC50 [7]: 0.05 nM |
| ABII60H5 (VHH) VHH: EVQLVESGGGLVQVGGSLRLSCAASGNIGSINAMGWYRQAPGKEREWVAIITNSGSVNYGPDSVKGRFTISGDNAKNRVYLQMDSLKPEDTAVYYCAAESWGRSPLKYLGQGTQVTVSS | – | > 1000 nM | – | – | – | binding result (A-beta(1-16) peptide): binds |

The remaining binders from weak to strong by EC50 [3], led by results:

| EC50 [2] | EC50 [3] | inhibition of peptide aggregation (ThT fluorescence), 28 µM VHH [8] | binding result (A-beta(12-28) peptide) | IC50 [9] | Binder | other results |
| --- | --- | --- | --- | --- | --- | --- |
| 20 nM | 41.1 nM | 79% | binds | 228 nM | ABII42F5 (VHH) VHH: EVQLVESGGGLVQAGDSLRLSCTASGRTFTDYNIGWFCQAPGKEREFVAAISGSGGSTYYADSAKGRFTISRDNAKNTVYLQMNSLKPEDTAVYACAAAQRRLAVNVDTSYNVWGQGTQVTVSS | – |
| 12.8 nM | 37.5 nM | 73% | binds | 773 nM | ABII35D2 (VHH) VHH: EVQLVESGGGLVQAGGSLRLSCVASGLTFSSYNMGWFRQAPGKEREFVAAISRSGGSTYYTDSVKGRFTISRDSSKNTVYLQMNSLKPEDTADYYCAAALFGSAINLLSEYRYWGQGTQVTVSS | – |
| 19.2 nM | 27.3 nM | – | binds | 844 nM | ABII1E11 (VHH) VHH: EVQLVESGGGLVQPGGSLRLSCAASGRTFSDYNMGWFHQAPGKEREIVAAISRSGRSTYYTVSVEGRFTISRDNAKNTVDLEMNSLKPEDTGIYYCAANSAGRAINLPLYKYWGQGTQVTVSS | – |
| 2.6 nM | 17.5 nM | 75% | binds | 205 nM | ABII42E10 (VHH) VHH: EVQLVESGGGLVQPGGSLRLSCAASGLTFTLYTMGWFRQAPGKEREFVAAISASGGTTYYADSVKGRFALSRDNAKNTVFLQMNTLKPEDTAEYLCAAAFRGFAINTPTSYNYWGQGTQVTVSS | – |
| 2.1 nM | 10.8 nM | 77% | binds | – | ABII42B10 (VHH) VHH: EVQLVESGGGLVQRGGSLRLSCAASGRTFSNLNMGWFRQAPGKEREFQAAISRSGGTTYYADSVKGRFTISRDNAKSTVFLQMNSLKPEDTAVYYCAAASPGGPINYGRAYDSWGQGTQVTVSS | IC50 [10]: 85.6 nM |
| 5.4 nM | 10.7 nM | 76% | binds | 645 nM | ABII35G2 (VHH) VHH: EVQLVESGGGLVQAGGSLRLSCVASGRTFSNYGMGWFRQAPGKDREFVAAISRSGGTTYYEDDVKGRFTISRDNAKNSVYLQMNSLKPEDTAVYYCAARPSYVAVNIAASYNNWGQGTQVTVSS | – |
| 1.3 nM | 1.9 nM | 82% | binds | 206 nM | ABII35C7 (VHH) VHH: EVQLVESGGGLVQPGGSLRLSCAASGRTFSIYNMGWFRQAPGKEREFVAAISRSGSSTYYGDSVKGRFTISRDNAKKTVYLQMNSLKPEDTAVYHCAAARFGTPINTRGSYDYWGQGTQVTVSS | – |
